Measured values published in article PMC8934265.
Changes are numbered by the printed parent chain.

Assays:
[1] = target: T1, NFYA-1 (T08D10.1), MBP fusion;NFYB-1, MBP fusion;NFYC-1, MBP fusion (Caenorhabditis elegans;Caenorhabditis …, UniProt G5EEG1;O17286;O17072 1-482;1-403;1-232, ||); test: EMSA
T1 sequence 1: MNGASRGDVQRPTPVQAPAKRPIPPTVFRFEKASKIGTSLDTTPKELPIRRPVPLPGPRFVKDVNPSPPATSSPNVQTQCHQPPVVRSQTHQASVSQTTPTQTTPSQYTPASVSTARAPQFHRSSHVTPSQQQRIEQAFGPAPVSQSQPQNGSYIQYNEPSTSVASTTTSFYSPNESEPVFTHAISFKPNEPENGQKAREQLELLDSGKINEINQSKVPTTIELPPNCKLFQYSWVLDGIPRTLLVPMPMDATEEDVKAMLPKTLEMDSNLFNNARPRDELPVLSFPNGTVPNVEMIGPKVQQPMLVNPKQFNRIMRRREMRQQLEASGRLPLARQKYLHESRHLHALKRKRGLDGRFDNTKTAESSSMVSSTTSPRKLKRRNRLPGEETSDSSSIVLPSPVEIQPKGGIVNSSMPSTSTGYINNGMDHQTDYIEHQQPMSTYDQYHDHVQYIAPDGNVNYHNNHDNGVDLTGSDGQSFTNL
T1 sequence 2: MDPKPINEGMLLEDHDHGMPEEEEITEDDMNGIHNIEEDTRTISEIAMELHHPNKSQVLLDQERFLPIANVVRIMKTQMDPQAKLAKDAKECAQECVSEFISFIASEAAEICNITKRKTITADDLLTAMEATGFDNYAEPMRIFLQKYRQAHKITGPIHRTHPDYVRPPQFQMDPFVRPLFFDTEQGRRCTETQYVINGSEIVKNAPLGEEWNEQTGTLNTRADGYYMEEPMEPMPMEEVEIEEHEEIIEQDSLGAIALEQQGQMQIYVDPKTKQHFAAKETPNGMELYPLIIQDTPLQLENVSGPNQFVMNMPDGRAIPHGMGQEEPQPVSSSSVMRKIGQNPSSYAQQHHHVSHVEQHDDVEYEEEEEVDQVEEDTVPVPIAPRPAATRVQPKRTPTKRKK
T1 sequence 3: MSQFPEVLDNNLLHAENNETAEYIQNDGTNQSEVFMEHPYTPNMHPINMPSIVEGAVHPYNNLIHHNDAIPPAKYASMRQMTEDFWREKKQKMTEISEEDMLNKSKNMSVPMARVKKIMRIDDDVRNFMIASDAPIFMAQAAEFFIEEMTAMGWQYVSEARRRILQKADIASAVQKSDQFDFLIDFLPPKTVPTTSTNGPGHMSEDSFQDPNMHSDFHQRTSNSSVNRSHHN

[2] = target: T1, NFYA-1 (T08D10.1), MBP fusion;NFYB-1, …; test: competition
[3] = target: T1, NFYA-1 (T08D10.1), MBP fusion;NFYB-1, …; test: competition; remark: listed apart in the source

B1: CCAAT box probe (dsDNA)
DNA 1: AGTTGTAGGCCTCTGCTTCCTGACCAATCTACAGAATAGGCTCCGCCTTC
DNA 2: AGTTGAAGGCGGAGCCTATTCTGTAGATTGGTCAGGAAGCAGAGGCCTAC
Q: Does B1 bind [1]?
A: binds

B2: CCAAT box mutant competitor (+mut) (dsDNA)
DNA 1: B1 DNA 1 with C25A, A26T, A27G
DNA 2: B1 DNA 2 with T28C, T29A, G30T
Q: Does B2 bind [2]?
A: no binding

B3: CCAAT box wild-type competitor (+CAAT) (dsDNA)
DNA 1: B1 DNA 1
DNA 2: B1 DNA 2
Q: Does B3 bind [3]?
A: binds
